Laboratory results taken from article PMC8325310.
Values joined by “and” are separate entries in the source; they are usually repeats but may differ in a detail not shown here. Equal entries are not always repeated.

How the values were obtained:
NT*-Bri2 BRICHOS (human) = assay: SEC; IMAC-purified NT*-Bri2 BRICHOS concentrated to 3.4 mg/mL, Superdex 200 26/600, 20 mM NaPi pH 8.0 with 0.2 mM EDTA; four peaks resolved (monomer, dimer, tetramer, higher oligomers)
[1] = target: recombinant human (rh) Bri2 BRICHOS (human); assay: SDS-PAGE under reducing and non-reducing conditions; SEC-isolated rh Bri2 BRICHOS species analysed by SDS-PAGE, reducing and non-reducing
[2] = target: recombinant human (rh) Bri2 BRICHOS (human); assay: SEC; Bri2 BRICHOS species after thrombin cleavage and reverse IMAC, Superdex 200 26/600 (oligomer, tetramer, dimer) or Superdex 75 26/600 (monomer), 20 mM NaPi pH 8.0 with 0.2 mM EDTA

NT*-Bri2 BRICHOS, sequence (Q9Y287 132-236): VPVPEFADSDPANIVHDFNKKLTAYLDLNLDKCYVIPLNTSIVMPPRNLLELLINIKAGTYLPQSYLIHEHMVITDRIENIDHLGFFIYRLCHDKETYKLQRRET

| stoichiometry N (NT*-Bri2 BRICHOS (human)) | stoichiometry N [1] | stoichiometry N [2] | Substance |
| --- | --- | --- | --- |
| 2 and 4 |  |  | NT*-Bri2 BRICHOS (domain or fragment) |
|  | 6 | 2 and 4 | recombinant human (rh) Bri2 BRICHOS (domain or fragment) |
